{"source": "patent US20240052047A1", "about": "(Pfizer, published 2024)", "binders": {"B1": {"name": "mAb-4894 anti-IL27RA/gp130 bispecific antibody (bispecific antibody, human IgG1)", "heavy 1": "EVQLVESGGGLVQPGGSLRLSCAASGFTFEYFGLQWVRQAPGKGLEWIGYTSSGGNYEYYEETLKGRFTISRDNAKNSLYLQMNSLRAEDTAVYYCARTKTGDYWGQGTLVTVSSASTKGPSVFPLAPSSKSTSGGTAALGCLVKDYFPEPVTVSWNSGALTSGVHTFPAVLQSSGLYSLSSVVTVPSSSLGTQTYICNVNHKPSNTKVDKKVEPKSCEKTHTCPPCPAPEAAGAPSVFLFPPKPKDTLMISRTPEVTCVVVDVSHEDPEVKFNWYVDGVEVHNAKTKPREEQYNSTYRVVSVLTVLHQDWLNGKEYKCKVSNKALPAPIEKTISKAKGQPREPQVYTLPPSREEMTKNQVSLTCEVKGFYPSDIAVEWESNGQPENNYKTTPPVLDSDGSFFLYSKLTVDKSRWQQGNVFSCSVMHEALHNHYTQKSLSLSPGK", "light 1": "DIQMTQSPSSLSASVGDRVTITCRASQDIGNSLTWYQQKPGKAPKRVIFGATGLAAGVPSRFSGSGSGTDFTLTISSLQPEDFATYYCLQSKQYPYTFGQGTKLEIKRTVAAPSVFIFPPSDEQLKSGTASVVCLLNNFYPREAKVQWKVDNALQSGNSQESVTEQDSKDSTYSLSSTLTLSKADYEKHKVYACEVTHQGLSSPVTKSFNRGEC", "heavy 2": "QVQLVQSGAEVKKPGSSVKVSCKVSGGSISSYYWSWVRQAPGQGLEWIGRIYITGNTNYNPSLKDRVTMTVDTSTSTHYMELSSLRSEDTAVYYCAREGPKLGIFDYWGQGTLVTVSSASTKGPSVFPLAPSSKSTSGGTAALGCLVKDYFPEPVTVSWNSGALTSGVHTFPAVLQSSGLYSLSSVVTVPSSSLGTQTYICNVNHKPSNTKVDKKVEPKSCRKTHTCPPCPAPEAAGAPSVFLFPPKPKDTLMISRTPEVTCVVVDVSHEDPEVKFNWYVDGVEVHNAKTKPREEQYNSTYRVVSVLTVLHQDWLNGKEYKCKVSNKALPAPIEKTISKAKGQPREPQVYTLPPSREEMTKNQVSLTCLVKGFYPSDIAVEWESNGQPENNYKTTPPVLDSDGSFFLYSRLTVDKSRWQQGNVFSCSVMHEALHNHYTQKSLSLSPGK", "light 2": "DIQMTQSPSSLSASVGDRVTITCRASQSVSSSYLAWYQQKPGKAPKLLIYGTESRATGVPSRFSGSGSGTDFTLTISSLQPEDFATYYCQQYGGYPTFGGGTKVEIKRTVAAPSVFIFPPSDEQLKSGTASVVCLLNNFYPREAKVQWKVDNALQSGNSQESVTEQDSKDSTYSLSSTLTLSKADYEKHKVYACEVTHQGLSSPVTKSFNRGEC", "notes": "Human IgG1 EE/RR heterodimer with L234A, L235A, G237A (EU); also called GBT-IL27R-4894; GBT-IL-27R-4894"}}, "key": {"[1]": {"target": "human IL27 receptor (IL27RA/gp130 heterodimer) on human cells (human, UniProt Q6UWB1 33-636; P40189 23-918)", "experiment": "cell-based or functional assay"}, "Human gp130": {"target": "T1, Human gp130 (human, UniProt P40189 23-619)", "T1 construct": "Soluble analyte in SPR and antigen in ELISA/screens; also called huGP130", "T1 sequence": "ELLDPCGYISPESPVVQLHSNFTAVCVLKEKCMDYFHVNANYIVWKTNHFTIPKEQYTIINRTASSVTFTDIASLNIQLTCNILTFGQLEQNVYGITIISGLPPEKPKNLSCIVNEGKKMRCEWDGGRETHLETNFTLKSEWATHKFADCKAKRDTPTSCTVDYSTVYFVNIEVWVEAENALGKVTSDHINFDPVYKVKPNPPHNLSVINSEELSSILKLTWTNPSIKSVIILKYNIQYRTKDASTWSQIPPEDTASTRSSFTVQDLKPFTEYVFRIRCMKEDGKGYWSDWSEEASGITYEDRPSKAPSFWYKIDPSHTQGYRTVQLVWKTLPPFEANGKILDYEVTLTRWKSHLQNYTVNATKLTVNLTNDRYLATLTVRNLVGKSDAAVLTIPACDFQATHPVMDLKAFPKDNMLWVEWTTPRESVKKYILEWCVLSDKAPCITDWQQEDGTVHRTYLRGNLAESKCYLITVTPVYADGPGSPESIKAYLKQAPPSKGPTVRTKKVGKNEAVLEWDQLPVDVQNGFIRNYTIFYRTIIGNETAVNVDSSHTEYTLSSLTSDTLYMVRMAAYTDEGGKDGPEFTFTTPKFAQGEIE", "experiment": "SPR Biacore 8K+, 37 C; mAb-4894 captured by anti-Fab, antigen as analyte; 1:1 Langmuir fit", "procedure": "(§1) The crossreactivity of mAb-4894 to human and cynomolgus monkey antigens, gp130 (human—SEQ ID NO: 45, cynomolgus—SEQ ID No: 46) and IL27RA (human—SEQ ID NO: 41, cynomolgus—SEQ ID No: 42), was measured by surface plasmon resonance by anti-FAB capture of mAb-4894 (containing arms of anti-IL27RA-4880 EE and anti-gp130-4875 RR) on a biacore chip. Human or cynomolgus monkey IL27RA or gp130 was flowed over the chip and on and off rates were determined, and the affinity constants calculated.\n(§2) Flow cell 1 for each channel was used as a reference flow cell. After antibody capture, three-fold dilution series of cytokines with concentrations ranging from 405 nM to 15 nM for huGP130 and cyGP130 and 45 nM to 1.67 nM for huIL27R and cyIL27R or HBS-EP+ buffer were injected over the sensor surface for 60 seconds at 50 μl/minute. The dissociation was monitored for 600 seconds and the surface was regenerated with 2 injections of 10 mM Glycine pH 1.7 at 30 μl/minute. The data was double referenced (Myszka, D., J. Mol. Recognit 1999; 279-284). Binding affinities and rate constants were determined for human and cyno GP130 and IL27R by fitting the resulting sensorgram data to a 1:1 Langmuir model in BIAcore Insight Evaluation software version 3.0.12.15655 (Cytiva)."}, "Human IL27RA": {"target": "T2, Human IL27RA (human, UniProt Q6UWB1 33-516)", "T2 construct": "Soluble analyte in SPR and antigen in ELISA/screens; also called huIL27R", "T2 sequence": "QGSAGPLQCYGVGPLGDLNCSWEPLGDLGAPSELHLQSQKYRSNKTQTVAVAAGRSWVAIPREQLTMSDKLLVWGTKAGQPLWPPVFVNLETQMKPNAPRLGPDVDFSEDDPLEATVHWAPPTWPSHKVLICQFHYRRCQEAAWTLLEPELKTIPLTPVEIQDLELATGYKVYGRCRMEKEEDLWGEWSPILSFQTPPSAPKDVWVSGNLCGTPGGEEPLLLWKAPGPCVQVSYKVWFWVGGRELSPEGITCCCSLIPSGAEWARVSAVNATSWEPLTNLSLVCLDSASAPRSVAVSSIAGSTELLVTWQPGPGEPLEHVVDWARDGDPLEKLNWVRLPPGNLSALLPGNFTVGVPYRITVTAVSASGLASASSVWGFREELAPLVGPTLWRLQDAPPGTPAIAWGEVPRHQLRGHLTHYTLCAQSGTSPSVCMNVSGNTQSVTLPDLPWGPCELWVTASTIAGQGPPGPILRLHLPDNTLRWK", "experiment": "SPR Biacore 8K+, 37 C; mAb-4894 captured by anti-Fab, antigen as analyte; 1:1 Langmuir fit", "procedure": "as §1, §2"}, "Cynomolgus monkey IL27RA": {"target": "T3, Cynomolgus monkey IL27RA (cynomolgus monkey)", "T3 construct": "Soluble SPR analyte; also called Cyno IL27R; cyIL27R", "T3 chain": "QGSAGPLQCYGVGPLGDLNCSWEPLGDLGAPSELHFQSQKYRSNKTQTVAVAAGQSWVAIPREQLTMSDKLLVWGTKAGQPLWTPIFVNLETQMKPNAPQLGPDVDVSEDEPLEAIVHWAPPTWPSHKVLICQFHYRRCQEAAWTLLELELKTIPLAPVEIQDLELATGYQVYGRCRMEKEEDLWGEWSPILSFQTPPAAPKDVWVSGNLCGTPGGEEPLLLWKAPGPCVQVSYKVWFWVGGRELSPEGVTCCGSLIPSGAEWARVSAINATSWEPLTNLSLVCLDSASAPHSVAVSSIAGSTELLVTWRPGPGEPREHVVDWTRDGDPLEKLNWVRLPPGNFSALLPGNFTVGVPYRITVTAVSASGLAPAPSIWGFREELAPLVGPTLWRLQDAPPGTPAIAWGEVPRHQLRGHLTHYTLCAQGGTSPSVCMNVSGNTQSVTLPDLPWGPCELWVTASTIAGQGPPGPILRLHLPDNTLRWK", "experiment": "SPR Biacore 8K+, 37 C; mAb-4894 captured by anti-Fab, antigen as analyte; 1:1 Langmuir fit", "procedure": "as §1, §2"}}}
{"binder": "B1", "values": [{"measurement": "Th17 Cells IL-17A IC50 (MSD immunoassay of supernatant)", "setting": "[1]", "result": 0.0055, "unit": "nM"}, {"measurement": "Kd", "setting": "Human gp130", "result": 170, "unit": "nM"}, {"measurement": "koff", "setting": "Human gp130", "result": 0.0566, "unit": "s⁻¹"}, {"measurement": "kon", "setting": "Human gp130", "result": 337000, "unit": "M⁻¹ s⁻¹"}, {"measurement": "Kd", "setting": "Human IL27RA", "result": 0.11, "unit": "nM"}, {"measurement": "koff", "setting": "Human IL27RA", "result": 0.00011, "unit": "s⁻¹"}, {"measurement": "kon", "setting": "Human IL27RA", "result": 998000, "unit": "M⁻¹ s⁻¹"}, {"measurement": "Kd", "setting": "Cynomolgus monkey IL27RA", "result": 1.68, "unit": "nM"}, {"measurement": "koff", "setting": "Cynomolgus monkey IL27RA", "result": 0.00195, "unit": "s⁻¹"}, {"measurement": "kon", "setting": "Cynomolgus monkey IL27RA", "result": "1.17e+06", "unit": "M⁻¹ s⁻¹"}]}
